One series relates to T1, GDH-L-CpCR.
T1 construct: fusion: GDH N-terminal, (GGGGS)2 linker, CpCR C-terminal; pETDuet-1, E. coli BL21(DE3); with Glucose 1-dehydrogenase
Nature of the series: NADPH depletion at […] nm. The class given is biochemical. The note with it: 100 mM phosphate pH 7.0, NADPH co-substrate, fused GDH; substrate of Km not given, OPBE by the assay.

The subject of another series is T2, CpCR-L-GDH.
T2 construct: fusion: CpCR N-terminal, (GGGGS)2 linker, GDH C-terminal; about 69 kDa; pETDuet-1, E. coli BL21(DE3); with Glucose 1-dehydrogenase
Nature of the series: NADPH depletion at […] nm. The class given is biochemical. The note with it: 100 mM phosphate pH 7.0, NADPH co-substrate, fused GDH; substrate of Km not given, OPBE by the assay.

Substrate in the series “purified protein”: CCOC(=O)C(=O)CCc1ccccc1
Nature of the series: purified protein. The class given is biochemical, Lodderomyces parapsilosis. The note with it: 100 mM phosphate pH 7.0, NADPH co-substrate, enzyme from pETDuet-1 strain, substrate of Km not given, OPBE by the assay.

As for `CCOC(=O)C(=O)CCc1ccccc1` [OPBE], the results for the Michaelis constant (Km) in the series with GDH-L-CpCR and with CpCR-L-GDH were 16.5 mM and 18.9 mM, respectively.

B1: CpCR (Lodderomyces parapsilosis) (protein)
chain: MTKAVPDKFQGFAVSDPKNWNRPKLASYERKQINPHDVVLKNEVCGLCYSDIHTLSAGWQPLQRDNLVVGHEIIGEVIAVGDEVTEFKVGDRVGIGAASSSCRSCQRCDSDNEQYCKQGAATYNSKDVRSNNYVTQGGYSSHSIADEKFVFAIPEDLPSSYGAPLMCAGITVFSPLIRNLGLDARGKNVGIIGIGGLGHLALQFANAMGANVTAFSRSSSKKEQAMKLGAHDFVATGEDKTWYKNYDDHFDFILNCASGIDGLNLSEYLSTLKVDKKFVSVGLPPSEDKFEVSPFTFLQQGASFGSSLLGSKTEVKEMLNLAAKHNVRPMIEEVPISEENCAKALDRCHAGDVRYRFVFTDFDKAFKA
notes: full-length ORF, 368 residues, about 41 kDa; His-tagged, expressed from pETDuet-1 in E. coli BL21(DE3), Ni-NTA purified
Turning to B1, in “purified protein”, the Km is 19.32 mM, the kcat came to 1.77 s⁻¹ and the kcat/Km stood at 91 M⁻¹ s⁻¹.

For the origin of these results see paper PMC11473482, “Highly efficient synthesis of the chiral ACE inhibitor intermediate (R)-2-hydroxy-4-phenylbutyrate ethyl ester via engineered bi-enzyme coupled systems” (Bioresources and Bioprocessing, 2024).
